From paper PMC6699109, “A GH51 α-L-arabinofuranosidase from Talaromyces leycettanus strain JCM12802 that selectively drives synergistic lignocellulose hydrolysis” (Microbial Cell Factories, 2019)

Substrate: O=[N+]([O-])c1ccc(O[C@@H]2O[C@@H](CO)[C@H](O)[C@H]2O)cc1
Experiment: purified protein
Format: biochemical, Evansstolkia leycettana
Conditions: 0.1 M McIlvaine buffer pH 3.5, 55 °C, 5 min, 0.1–5 mM substrate

B1: TlAbf51 (Evansstolkia leycettana) (protein)
chain: MKTLPALAGGLAVAVTYLSGLAFAIDLTVSKTGGNASSPLLYGIMFEDINNSGDGGIHGQLLKNNGFQGNNPGLTAYAAVGNVTLSQDTSNPLSSAITSSLKVSVPPGTTGYVGFANTGYAGVPVVATTYANYFWMKGKYSGTINLRLVGTSSGIVYASHNITVHSTDSQFTYYDTSFTSSASPDGNNEWQLLFDGSQVAGSSLNFGLVQLFPPTYHSRYNGLRNDVASFLEEIKPSFLRFPGGNNLEGASPADRWKWNATIGPVVDRPGRQGDWGYPNTDALGLDEYLYWCEDMGMEPVLAVWSGLSLGGGIVSGSALDPYVDDIMNELEYLLGDMSTAGGRLRAQNGRTEPWPIKHVEVGNEDNLSSGCGTYASRFTQIYNAIHAAYPDITVIASTTDASCLPSSILEGVITDIHHYLNPDQFVALFNEWDNWPRTHPIFVGEYASTHNSDGSQTYWTRMRGSCGEAVYMIGMERNSDIVKMASYAPLLEHFNLAEWSPDLFGLDSSPDSITGSTSYYVQKMFSTNRGSTILPVTSDAGFGPVYWVASVSGSTYYVKLANYGSASETVTINIDGTKSGTLEMLSGAEMGSNYPHNVTITPQTSSVSGSGSFTVTMPAWAVAVLAVS
notes: secreted from Pichia pastoris GS115 (pPIC9, EcoRI/NotI), purified
Km: 280 ± 10 µM | kcat: 1600 s⁻¹
